Results on 13 molecules are retold here after article PMC5799168 (Scientific Reports, 2018).

What is called IC50 is the concentration that inhibits the measured activity by half. A word on the Ki: it is the equilibrium dissociation constant of an inhibitor or competing ligand from its target. A higher Ki goes with a looser hold on the target. Broadly, the Km is the concentration of substrate that gives half-maximal velocity. As usually defined, the Vmax is the rate approached at saturating substrate.

Data set [1] concerns the target T1, Ndi1 (Saccharomyces cerevisiae, UniProt P32340).
T1 construct: The mature Ndi1, which lacks a mitochondrial targeting; (His)10; made in house; host or cells: E. coli BL21(DE3)pLysS, plasmid pET16b(NDI1-m)
T1 sequence (P32340 27-513): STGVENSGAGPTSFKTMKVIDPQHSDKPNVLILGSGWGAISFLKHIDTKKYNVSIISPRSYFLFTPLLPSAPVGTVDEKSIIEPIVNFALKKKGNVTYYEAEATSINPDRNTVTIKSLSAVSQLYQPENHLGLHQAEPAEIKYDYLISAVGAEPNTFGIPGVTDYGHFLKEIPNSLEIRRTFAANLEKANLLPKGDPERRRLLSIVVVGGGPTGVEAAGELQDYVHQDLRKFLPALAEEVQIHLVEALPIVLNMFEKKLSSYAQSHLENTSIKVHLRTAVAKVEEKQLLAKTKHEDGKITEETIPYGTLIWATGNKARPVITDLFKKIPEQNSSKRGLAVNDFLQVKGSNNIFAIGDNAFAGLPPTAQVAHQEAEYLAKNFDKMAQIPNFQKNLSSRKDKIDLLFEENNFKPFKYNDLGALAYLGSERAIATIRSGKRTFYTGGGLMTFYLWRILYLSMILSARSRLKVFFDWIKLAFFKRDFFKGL
In words: Inhibition of NADH-ubiquinone-1 oxidoreductase activity of the purified Ndi1. In kind it is biochemical. The conditions noted are these: for IC50: NADH-ubiquinone-1 oxidoreductase activity, purified recombinant Ndi1, 100 µM NADH, pH 6.0, mean ± S.E.M of three independent experiments; for Inhibition mode: inhibition mode for ubiquinone-1, from intersection point in Lineweaver-Burk plots, 100 µM NADH; for Ki: non-linear regression of mixed type inhibition (GraphPad Prism 6), versus ubiquinone-1; for Ki / α (α > 0): mean ± S.D.; for α (α > 0): α of mixed model inhibition fit (αKi = dissociation constant of ternary enzyme-substrate-inhibitor complex). How it is done: NADH-ubiquinone oxidoreductase activity was measured as described previously. In brief, the reaction was started by adding 100 µM NADH to the enzyme mixture containing 10 ng/mL Ndi1, 50 mM sodium phosphate (pH 6.0) and 1 mM EDTA, which was pre-incubated with various concentrations of ubiquinone-1 for 1 min. […] The concentrations of inhibitors required to obtain the half-maximal inhibition (IC50) were estimated by non-linear regression dose-response curves. The inhibition mode of each inhibitor for ubiquinone-1 was determined by the intersection point in double-reciprocal plots (Fig. 2B–E). To objectively evaluate the inhibition mode, the data of the inhibition kinetics were fitted to the Eq.
This equation provides two dissociation constants, one for the binary enzyme-inhibitor complex (Ki), the other for the ternary enzyme-substrate-inhibitor complex (αKi).

Data set [2] has as its target T1, Ndi1. Also noted: method as in PMID 17200125. The conditions noted are these: inhibition of Ndi1; cited from earlier work.
For data set [3], the system named is wild-type and mutant Ndi1. Put plainly: Kinetic parameters of the oxidoreductase activity of wild-type and mutant Ndi1 for ubiquinone-1. The class given is biochemical, Saccharomyces cerevisiae. The conditions noted are these: for Km: apparent Km for ubiquinone-1 (2.4–60 µM); for Km / Vmax: NADH fixed at 100 µM; for Vmax, % of the wild-type activity: relative to wild-type Ndi1; for Vmax: ubiquinone-1 as substrate (2.4–60 µM). The procedure: This unique structure appears to be related to the competitive nature of the inhibition of Ndi1 oxidoreductase activity by stigmatellin. It is therefore hypothesized that L444, I459, R460, and S461, which interact with stigmatellin at the STG-1a site, are also involved in the binding of the substrate ubiquinone (Fig. 5). This hypothesis was evaluated by examining the effects of mutations of the proximal L444 and I459 on the kinetics of the enzymatic reaction of Ndi1. The effect of the mutation of S484, which specifically interacts with stigmatellin at the STG-1b site, was examined as a control. Furthermore, the effects of mutations of W63, P92, A393, Q394, H397, L447, Y482, M485, and L487, which interact with the aromatic head group of stigmatellin at the STG-1a and STG-1b sites, were also examined. Moreover, to investigate the functional role of the STG-2 site in ubiquinone binding, a mutation was also introduced to R479.
NADH-ubiquinone oxidoreductase activity was measured as described previously. In brief, the reaction was started by adding 100 µM NADH to the enzyme mixture containing 10 ng/mL Ndi1, 50 mM sodium phosphate (pH 6.0) and 1 mM EDTA, which was pre-incubated with various concentrations of ubiquinone-1 for 1 min. The decrease in 340 nm absorbance was measured as an indication of the oxidation of NADH (ε = 6.22 mM^−1 cm^−1) with a Shimadzu UV2000 spectrophotometer (Kyoto, Japan). The enzymatic activity obtained with 100 µM NADH and 60 µM ubiquinone-1 in the absence of any inhibitors (100% activity) catalyzed the oxidation of 1,890 μmol NADH/min/mg Ndi1. The concentrations of inhibitors required to obtain the half-maximal inhibition (IC50) were estimated by non-linear regression dose-response curves. The inhibition mode of each inhibitor for ubiquinone-1 was determined by the intersection point in double-reciprocal plots (Fig. 2B–E). To objectively evaluate the inhibition mode, the data of the inhibition kinetics were fitted to the Eq. (1) of mixed model inhibition in the Prism6 software program (GraphPad Software, Inc., La Jolla, CA).1 V=Vmax[S]/[S](1+[I]/αKi)+Km(1+[I]/Ki) […]
To determine the kinetic parameters of wild-type and mutant enzymes for ubiquinone-1, the NADH oxidation rates were measured in a fixed concentration of NADH (100 µM) and different concentrations of ubiquinone-1 (2.4–60 µM). Apparent Km and Vmax values were obtained by fitting a data set of initial velocity versus substrate concentration to the Michaelis-Menten model equation in the Prism6 software program.
Site-directed mutagenesis. The amino acid replacements of Ndi1 were basically performed with PrimeSTAR mutagenesis basal kit (Takara, Japan) using pET16b(NDI1-m) (2) and a synthetic oligonucleotide primer set (Table S2). The mutagenesis of H397 was performed with a QuikChange II XL site-directed mutagenesis kit (Stratagene, CA). Each mutation was confirmed through DNA sequencing (DNA sequencing service, Eurofins). The purification procedure of wild-type and mutant enzymes, used for the determination of the kinetic parameters (Table 2), was basically the same as the above procedure, without the replacement of the detergent from Triton X -100 with DDM. After washing the enzyme with buffer A containing 0.1% Triton X-100 and 15 mM histidine, 0.02% Triton X-100 was added to all buffer as a substitute for DDM. With the exception of 5 mutants containing L444D, I459A, […]
yield of the wild-type enzyme. […]

Changes are numbered by the printed parent chain. In names and notes the source's numbering stands. Like-named read-outs stand apart in the source and are kept apart here.

Consider `CC(/C=C/[C@@]1(C)[C@H](C)CCC(=O)[C@@H]1C)=C\Cc1c(O)c(Cl)c(C)c(C=O)c1O` [Ascochlorin, ascochlorin], for which, in data set [1], the concentration for half-maximal inhibition (IC50) was 0.955 ± 0.139 µM; the Inhibition mode entry is “mixed”; the affinity, expressed as Ki, was 0.728 ± 0.191 µM; the “α (α > 0)” value worked out at 2.64±1.87.
On to `CCCCCCCCCCCc1cc(=O)c2ccccc2n1O` [AC0-11, 1-hydroxy-2-undecyl-4(1 H) quinolone], for which the IC50 in data set [2] was 0.2 µM.
With `C/C=C(C)/C=C/C=C/[C@H](OC)[C@@H](C)[C@@H](OC)[C@@H](C)CCc1oc2c(O)c(OC)cc(OC)c2c(=O)c1C` [Stigmatellin, stigmatellin], in data set [1], the concentration for half-maximal inhibition (IC50) worked out at 0.107 ± 0.021 µM, the Inhibition mode entry was “competitive”, affinity was put at a Ki of 0.0939 ± 0.0304 µM and the “α (α > 0)” value is given as ~6.33×10^20. In addition, the “α (α > 0)” value in data set [1] (listed as stigmatellin) is recorded as “close to infinity”.
With `CCCCCCCCCCCCc1cc(=O)c2ccccc2n1O` [AC0-12, 1-hydroxy-2-dodecyl-4(1 H) quinolone], in data set [1], the half-inhibitory concentration (IC50) came to 0.115 ± 0.018 µM, the Inhibition mode result is recorded as “mixed”, the Ki was determined as 0.014 ± 0.0019 µM and the “α (α > 0)” value was determined as 13.0±11.7.

B1: R479K: recombinant Ndi1 mutant R479K (protein, UniProt P32340 27-513, looked up, variant R479K)
Rotenone-insensitive …: T1 sequence (P32340 27-513) with R453K
As to B1, in data set [3], the Michaelis-Menten constant (Km) turned out to be 9.37 ± 0.48 µM; the “Vmax, % of the wild-type activity” value amounted to 29%; the Vmax was found to be 305 ± 5.8 µmol/min/mg.

B2: Y482F: recombinant Ndi1 mutant Y482F (protein, UniProt P32340 27-513, looked up, variant Y482F)
Rotenone-insensitive …: T1 sequence (P32340 27-513) with Y456F
Regarding B2, in data set [3], the Km stood at 23.3 ± 2 µM and the Vmax was determined as 1090 ± 45 µmol/min/mg.

B3: S484I: recombinant Ndi1 mutant S484I (protein, UniProt P32340 27-513, looked up, variant S484I)
Rotenone-insensitive …: T1 sequence (P32340 27-513) with S458I
As for B3, in data set [3], the Km turned out to be 25 ± 1.7 µM and the maximum rate (Vmax) was found to be 1010 ± 33 µmol/min/mg.

B4: Wild type: wild-type recombinant Saccharomyces cerevisiae Ndi1 (NADH dehydrogenase) (protein, UniProt P32340 27-513, looked up)
Rotenone-insensitive …: T1 sequence (P32340 27-513)
Consider B4, for which, in data set [3], the Km was 22.7 ± 1 µM and the maximal velocity (Vmax) was found to be 1060 ± 6.1 µmol/min/mg.

B5: S484F: recombinant Ndi1 mutant S484F (protein, UniProt P32340 27-513, looked up, variant S484F)
Rotenone-insensitive …: T1 sequence (P32340 27-513) with S458F
Regarding B5, in data set [3], the Km is 24.5 ± 3.9 µM and the Vmax was 1160 ± 120 µmol/min/mg.

B6: R479I: recombinant Ndi1 mutant R479I (protein, UniProt P32340 27-513, looked up, variant R479I)
Rotenone-insensitive …: T1 sequence (P32340 27-513) with R453I
Take B6: in data set [3], the Km turned out to be 27.7 ± 1.2 µM and the Vmax is 0.313 ± 0.007 µmol/min/mg.

B7: L444N: recombinant Ndi1 mutant L444N (protein, UniProt P32340 27-513, looked up, variant L444N)
Rotenone-insensitive …: T1 sequence (P32340 27-513) with L418N
As to B7, in data set [3], the Michaelis constant (Km) worked out at 23.9 ± 2 µM and the Vmax was found to be 1333 ± 14 µmol/min/mg.

B8: I459N: recombinant Ndi1 mutant I459N (protein, UniProt P32340 27-513, looked up, variant I459N)
Rotenone-insensitive …: T1 sequence (P32340 27-513) with I433N
On to B8, for which, in data set [3], the Km was found to be 30.3 ± 2 µM and the Vmax was 11.1 ± 0.096 µmol/min/mg.

B9: R479H: recombinant Ndi1 mutant R479H (protein, UniProt P32340 27-513, looked up, variant R479H)
Rotenone-insensitive …: T1 sequence (P32340 27-513) with R453H
On to B9, for which, in data set [3], the Km came out at 23.5 ± 1.4 µM; the “Vmax, % of the wild-type activity” value is listed as 0.1%; the Vmax came out at 1.06 ± 0.035 µmol/min/mg.
